Measurements reported in article PMC9037914 (PLoS Pathogens, 2022).

T1: Plasmodium falciparum myosin A (P. falciparum, UniProt Q8IDR3 1-818)
T1 construct: also called PfMyoA; MyoA
T1 sequence: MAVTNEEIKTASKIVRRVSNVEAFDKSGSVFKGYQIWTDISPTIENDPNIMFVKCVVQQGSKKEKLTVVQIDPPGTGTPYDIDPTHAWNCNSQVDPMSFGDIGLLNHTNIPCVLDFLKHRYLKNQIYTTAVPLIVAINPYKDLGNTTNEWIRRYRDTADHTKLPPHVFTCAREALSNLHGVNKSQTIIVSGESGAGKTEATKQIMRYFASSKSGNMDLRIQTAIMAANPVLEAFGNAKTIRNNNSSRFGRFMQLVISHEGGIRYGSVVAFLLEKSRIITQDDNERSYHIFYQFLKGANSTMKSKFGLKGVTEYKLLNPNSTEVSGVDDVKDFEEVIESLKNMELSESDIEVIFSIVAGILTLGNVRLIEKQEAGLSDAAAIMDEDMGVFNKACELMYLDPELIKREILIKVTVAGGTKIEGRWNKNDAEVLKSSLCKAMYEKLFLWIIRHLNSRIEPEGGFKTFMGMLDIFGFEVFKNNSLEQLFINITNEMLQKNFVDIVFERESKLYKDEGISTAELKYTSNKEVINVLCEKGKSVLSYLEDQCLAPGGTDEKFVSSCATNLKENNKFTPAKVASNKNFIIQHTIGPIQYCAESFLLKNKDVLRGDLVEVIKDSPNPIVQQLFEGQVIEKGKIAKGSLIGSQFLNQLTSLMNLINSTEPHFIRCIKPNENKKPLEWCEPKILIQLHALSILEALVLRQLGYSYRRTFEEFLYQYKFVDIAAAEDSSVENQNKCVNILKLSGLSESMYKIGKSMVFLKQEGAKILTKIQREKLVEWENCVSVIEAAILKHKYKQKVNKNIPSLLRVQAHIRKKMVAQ

T2: MyoA:ELC:MTIP complex (P. falciparum, UniProt Q8IDR3;Q8IJM4;Q8I4W8)
T2 construct: also called PfMyoA with its two light chains; MyoA:MTIP:ELC complex; copies: + +
T2 sequence 1: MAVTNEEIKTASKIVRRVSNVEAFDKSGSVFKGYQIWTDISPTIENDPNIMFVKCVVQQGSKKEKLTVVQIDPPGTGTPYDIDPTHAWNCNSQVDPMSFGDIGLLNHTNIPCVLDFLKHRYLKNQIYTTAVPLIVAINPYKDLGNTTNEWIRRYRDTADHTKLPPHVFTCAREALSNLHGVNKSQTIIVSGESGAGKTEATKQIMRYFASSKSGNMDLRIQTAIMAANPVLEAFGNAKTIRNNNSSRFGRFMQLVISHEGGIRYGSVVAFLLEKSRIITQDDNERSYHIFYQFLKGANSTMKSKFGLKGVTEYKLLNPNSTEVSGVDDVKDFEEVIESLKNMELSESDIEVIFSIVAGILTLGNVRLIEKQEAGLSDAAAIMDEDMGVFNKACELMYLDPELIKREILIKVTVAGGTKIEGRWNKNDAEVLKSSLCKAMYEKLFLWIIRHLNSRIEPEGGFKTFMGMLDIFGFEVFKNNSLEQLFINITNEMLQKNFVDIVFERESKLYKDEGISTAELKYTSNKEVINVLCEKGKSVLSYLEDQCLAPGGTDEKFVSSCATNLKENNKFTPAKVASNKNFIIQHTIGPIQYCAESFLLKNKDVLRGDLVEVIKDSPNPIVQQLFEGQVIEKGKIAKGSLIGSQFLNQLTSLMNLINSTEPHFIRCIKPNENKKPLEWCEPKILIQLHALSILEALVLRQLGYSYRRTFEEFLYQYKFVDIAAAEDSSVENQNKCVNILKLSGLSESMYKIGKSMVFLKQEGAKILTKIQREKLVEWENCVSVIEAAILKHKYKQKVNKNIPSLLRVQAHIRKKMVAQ
T2 sequence 2: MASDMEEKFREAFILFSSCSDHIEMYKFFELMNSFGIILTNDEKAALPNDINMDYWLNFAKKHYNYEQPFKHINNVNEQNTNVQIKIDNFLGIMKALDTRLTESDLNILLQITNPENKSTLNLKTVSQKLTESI
T2 sequence 3: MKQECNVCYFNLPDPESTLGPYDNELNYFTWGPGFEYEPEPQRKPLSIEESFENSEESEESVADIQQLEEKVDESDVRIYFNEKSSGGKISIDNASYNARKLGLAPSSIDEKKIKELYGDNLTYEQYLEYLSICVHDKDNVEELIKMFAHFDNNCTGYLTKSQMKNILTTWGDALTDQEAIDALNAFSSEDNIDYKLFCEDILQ


Key:
Test in all cases: cryo-EM structure
[1] = target: T1, Plasmodium falciparum myosin A; conditions: both partners purified
MyoA:ELC:MTIP complex = target: T2, MyoA:ELC:MTIP complex; conditions: both partners purified
cryo-EM structure = target: the molecule itself

Row | Binder | binding result [1] | binding result (MyoA:ELC:MTIP complex) | binding result (cryo-EM structure)
1 | Plasmodium falciparum essential light chain (natural protein, also called PfELC; ELC) MASDMEEKFREAFILFSSCSDHIEMYKFFELMNSFGIILTNDEKAALPNDINMDYWLNFAKKHYNYEQPFKHINNVNEQNTNVQIKIDNFLGIMKALDTRLTESDLNILLQITNPENKSTLNLKTVSQKLTESI | binds | – | –
2 | Plasmodium falciparum actin 1 filament (natural protein, source: polymerised with jasplakinolide) not shown | binds | binds | binds
